Data from patent US20240091368A1 (Bicycle, published 2024).
Numbered stars: 1 amine (or outer) side, 2 acyl side, 3 side chain; on linkers, the order of the positions; unused ones are H or OH. Bridge positions count the residues as written; N and C are the ends. Square brackets hold non-standard residues; d marks the D form. Ends that are not written are not given here. * marks the point of attachment. TATA = O=C(CC[*:1])N1CN(C(=O)CC[*:2])CN(C(=O)CC[*:3])C1; hArg = N=C(N)NCCCC[C@H](N)C(=O)O; Agb = N=C(N)NCC[C@H](N)C(=O)O; Pent4ynoyl = C#CCCC(=O)*

B1: BCY19147 (peptide)
peptide: Ac-CNAVLCSWA[hArg]ANSFCK(Pent4ynoyl)
modifications: linker 1-6-15 via TATA; also: trimer: each monomer attached at C-terminus to central hinge B (PEG23)
B2: BCY17347 (peptide)
peptide: ACNAVLCSWARANSFCA
modifications: linker 2-7-16 via TATA; also: tetramer: each monomer attached at its C-terminus to central hinge moiety C (PEG23), further groups not given here
B3: BCY19148 (peptide)
peptide: Ac-CNAVLCSWA[hArg]ANSFCK(Pent4ynoyl)
modifications: linker 1-6-15 via TATA; also: tetramer: each monomer attached at C-terminus to central hinge C (PEG23)
B4: BCY17346 (peptide)
peptide: ACNAVLCSWARANSFCA
modifications: linker 2-7-16 via TATA; also: trimer: each monomer C-terminus attached to hinge B (PEG23)
B5: BCY19071 (peptide)
peptide: Ac-CNSYTCYIKHILG[Agb]C
modifications: linker 1-6-15 via TATA; also: dimer: each monomer attached at C-terminus to central hinge A (PEG23)
B6: BCY17345 (peptide)
peptide: ACNAVLCSWARANSFCA
modifications: linker 2-7-16 via TATA; also: dimer: each monomer attached at C-terminus to central hinge A (PEG23)

molecular target: human ACE2 (angiotensin-converting enzyme 2) (human, UniProt Q9BYF1 18-805); assay: cell-based or functional assay
Sequence (Q9BYF1 18-805): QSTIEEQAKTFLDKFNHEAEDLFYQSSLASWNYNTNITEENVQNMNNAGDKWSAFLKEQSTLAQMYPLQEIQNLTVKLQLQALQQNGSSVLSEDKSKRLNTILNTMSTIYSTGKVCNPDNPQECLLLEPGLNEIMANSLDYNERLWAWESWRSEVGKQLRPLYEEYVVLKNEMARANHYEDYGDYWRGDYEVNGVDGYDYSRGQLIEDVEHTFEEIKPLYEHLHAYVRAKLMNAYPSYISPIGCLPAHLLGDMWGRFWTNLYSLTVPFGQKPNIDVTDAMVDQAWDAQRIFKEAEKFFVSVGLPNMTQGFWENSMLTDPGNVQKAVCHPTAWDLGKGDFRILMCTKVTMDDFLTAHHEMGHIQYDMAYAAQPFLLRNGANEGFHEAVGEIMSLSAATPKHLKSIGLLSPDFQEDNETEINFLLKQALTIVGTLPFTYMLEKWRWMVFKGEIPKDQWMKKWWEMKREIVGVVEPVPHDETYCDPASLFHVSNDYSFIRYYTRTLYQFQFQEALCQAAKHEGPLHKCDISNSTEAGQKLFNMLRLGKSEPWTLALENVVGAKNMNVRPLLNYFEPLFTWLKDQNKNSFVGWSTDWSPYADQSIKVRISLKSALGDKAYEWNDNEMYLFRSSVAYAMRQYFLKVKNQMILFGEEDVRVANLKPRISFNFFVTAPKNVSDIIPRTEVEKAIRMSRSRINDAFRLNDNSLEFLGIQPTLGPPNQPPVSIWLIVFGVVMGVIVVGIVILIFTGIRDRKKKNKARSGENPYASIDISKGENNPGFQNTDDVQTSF

| Binder | Pseudoviral Neutralisation Assay, Geomean IC50 |
| --- | --- |
| B1 | 17.7 nM |
| B2 | 3.75 nM |
| B3 | 10.1 nM |
| B4 | 12 nM |
| B5 | 24 nM |
| B6 | 6.96 nM |
| ACNAVLCSWARANSFCA (linker 2-7-16 via TATA) [BCY15429] | 1280 nM |
